B1: Ab-31 (antibody, V domains shown)
VH: EVQLQESGPGLVKPSETLSLTCAVSGYSISSGYYWGWIRQPPGKGLEWIGSIYHSGNTYYNPSLKSRVTISVDTSKNQFSLKLSSVTAADTAVYYCARVPRYSRGDAYYYYGMDVWGQGTTVTVSS
VL: DIQMTQSPSTLSASVGDRVTITCRASQSIGSWLAWYQQKPGKAPKLLIYKASSLESGVPSRFSGSGSGTEFTLTISSLQPDDFATYYCQQSGPYPWTFGGGTKVEIK
B2: Ab-32 (antibody, V domains shown)
VH: EVQLQESGPGLVKPSETLSLTCAVSGYSISSGYYWGWIRQPPGKGLEWIGSIYHSGNTYYNPSLKSRVTISVDTSKNQFSLKLSSVTAADTAVYYCARVPRYSRGDAYYYYGMDVWGQGTTVTVSS
VL: EIVLTQSPGTLSLSPGERATLSCRASQSVRSSYLAWYQQKPGQAPRLLIYGASSRATGIPDRFSGSGSGTDFTLTISRLEPEDFAVYYCQQAGLVFTFGGGTKVEIK
B3: Ab-30 (antibody, V domains shown)
VH: EVQLQESGPGLVKPSETLSLTCAVSGYSISSGYYWGWIRQPPGKGLEWIGSIYHSGNTYYNPSLKSRVTISVDTSKNQFSLKLSSVTAADTAVYYCARVPRYSRGDAYYYYGMDVWGQGTTVTVSS
VL: DIQMTQSPSTLSASVGDRVTITCRASQSISSWLAWYQQKPGKAPKLLIYKASSLESGVPSRFSGSGSGTEFTLTISSLQPDDFATYYCQQVKIYPPYTFGGGTKVEIK
B4: Ab-33 (antibody, V domains shown)
VH: EVQLVQSGAEVKKPGSSVKVSCKASGGTFSNYAISWVRQAPGQGLEWMGGIIPIFGTANYAQKFQGRVTITADESTSTAYMELSSLRSEDTAVYYCARAPRSARGDMYYYYYGMDVWGQGTTVTVSS
VL: DIQMTQSPSTLSASVGDRVTITCRASQSIGSWLAWYQQKPGKAPKLLIYKASSLESGVPSRFSGSGSGTEFTLTISSLQPDDFATYYCQQYGRYPWTFGGGTKVEIK
B5: Ab-29 (antibody, V domains shown)
VH: ELQLQESGPGLVKPSETLSLTCTVSGGSISSNSYYWGWIRQPPGKGLEWIGSIYYSGSTYYNPSLKSRVTISVDTSKNQFSLKLSSVTAADTAVYYCARVRRVAGRGDSYYYYYGMDVWGQGTTVTVSS
VL: DIQMTQSPSSVSASVGDRVTITCRASQGISRWLAWYQQKPGKAPKLLIYAASSLQSGVPSRFSGSGSGTDFTLTISSLQPEDFATYYCQQAISHPWTFGGGTKVEIK

What was measured:
[1] = biological target: T1, recombinant mouse αvβ1 integrin extracellular domains (mouse, UniProt P43406 1-988; P09055 1-728, Biotinylated on the Avitag (tag not in the letters); interchain disulfide between the coiled-coils (not in the letters).); assay: ForteBio Octet Red (BLI)
T1 construct: Soluble heterodimer co-expressed in Expi293 cells; also called mαvβ1
T1 sequence (P43406 31-988 limits assumed, form in doubt, chain 1 of 2): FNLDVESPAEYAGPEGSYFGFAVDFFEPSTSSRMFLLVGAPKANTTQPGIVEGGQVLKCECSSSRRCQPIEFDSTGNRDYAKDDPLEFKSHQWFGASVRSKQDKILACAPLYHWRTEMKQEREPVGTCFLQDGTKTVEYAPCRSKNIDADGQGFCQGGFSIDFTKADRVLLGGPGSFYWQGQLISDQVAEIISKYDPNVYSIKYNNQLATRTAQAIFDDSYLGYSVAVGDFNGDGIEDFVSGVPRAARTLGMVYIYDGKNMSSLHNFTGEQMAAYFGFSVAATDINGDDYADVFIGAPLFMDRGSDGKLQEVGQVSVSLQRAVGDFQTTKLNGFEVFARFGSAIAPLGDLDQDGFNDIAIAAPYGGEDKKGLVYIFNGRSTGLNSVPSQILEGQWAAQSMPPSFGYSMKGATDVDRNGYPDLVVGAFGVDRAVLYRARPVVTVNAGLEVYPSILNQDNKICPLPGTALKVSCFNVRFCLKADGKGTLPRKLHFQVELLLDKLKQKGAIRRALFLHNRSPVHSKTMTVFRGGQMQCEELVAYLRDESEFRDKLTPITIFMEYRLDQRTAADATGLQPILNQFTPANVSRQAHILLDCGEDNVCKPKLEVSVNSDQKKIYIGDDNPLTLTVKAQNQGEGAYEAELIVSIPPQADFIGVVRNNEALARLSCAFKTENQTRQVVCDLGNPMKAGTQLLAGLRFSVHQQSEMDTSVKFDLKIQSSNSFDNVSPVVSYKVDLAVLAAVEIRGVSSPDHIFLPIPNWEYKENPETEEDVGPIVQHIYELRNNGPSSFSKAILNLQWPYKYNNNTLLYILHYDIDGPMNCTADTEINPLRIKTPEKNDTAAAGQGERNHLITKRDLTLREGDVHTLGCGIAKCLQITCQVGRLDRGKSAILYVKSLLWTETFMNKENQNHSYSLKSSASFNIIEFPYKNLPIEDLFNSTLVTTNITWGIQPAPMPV
T1 sequence (P09055 21-728 limits assumed, form in doubt, chain 2 of 2): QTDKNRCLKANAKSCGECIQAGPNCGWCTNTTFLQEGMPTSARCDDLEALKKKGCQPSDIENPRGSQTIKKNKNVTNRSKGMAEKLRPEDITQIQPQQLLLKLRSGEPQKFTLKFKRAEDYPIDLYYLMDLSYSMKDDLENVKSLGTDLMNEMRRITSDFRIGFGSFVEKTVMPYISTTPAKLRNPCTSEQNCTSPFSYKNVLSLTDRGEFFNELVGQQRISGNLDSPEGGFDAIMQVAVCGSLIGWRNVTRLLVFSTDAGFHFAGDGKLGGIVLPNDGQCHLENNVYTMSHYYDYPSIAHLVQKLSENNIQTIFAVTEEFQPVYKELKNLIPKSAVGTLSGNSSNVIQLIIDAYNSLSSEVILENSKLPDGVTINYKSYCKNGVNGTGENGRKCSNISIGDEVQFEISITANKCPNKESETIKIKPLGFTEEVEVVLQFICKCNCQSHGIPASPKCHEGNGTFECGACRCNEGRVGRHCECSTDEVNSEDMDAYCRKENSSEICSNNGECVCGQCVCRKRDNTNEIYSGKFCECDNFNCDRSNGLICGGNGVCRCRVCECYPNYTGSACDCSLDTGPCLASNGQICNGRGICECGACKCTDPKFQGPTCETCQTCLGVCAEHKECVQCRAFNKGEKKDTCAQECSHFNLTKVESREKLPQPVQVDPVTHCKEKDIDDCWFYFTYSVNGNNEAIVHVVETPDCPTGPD

[2] = biological target: T2, recombinant mouse αvβ6 integrin extracellular domains (mouse, UniProt P43406 1-988; Q9Z0T9 1-706, Biotinylated on the Avitag (tag not in the letters); interchain disulfide between the coiled-coils (not in the letters).); assay: ForteBio Octet Red (BLI)
T2 construct: Soluble heterodimer co-expressed in Expi293 cells; also called mαvβ6
T2 sequence (P43406 31-988 limits assumed, form in doubt, chain 1 of 2): as the sequence (P43406 31-988 limits assumed, form in doubt, chain 1 of 2) above
T2 sequence (Q9Z0T9 22-706 limits assumed, form in doubt, chain 2 of 2): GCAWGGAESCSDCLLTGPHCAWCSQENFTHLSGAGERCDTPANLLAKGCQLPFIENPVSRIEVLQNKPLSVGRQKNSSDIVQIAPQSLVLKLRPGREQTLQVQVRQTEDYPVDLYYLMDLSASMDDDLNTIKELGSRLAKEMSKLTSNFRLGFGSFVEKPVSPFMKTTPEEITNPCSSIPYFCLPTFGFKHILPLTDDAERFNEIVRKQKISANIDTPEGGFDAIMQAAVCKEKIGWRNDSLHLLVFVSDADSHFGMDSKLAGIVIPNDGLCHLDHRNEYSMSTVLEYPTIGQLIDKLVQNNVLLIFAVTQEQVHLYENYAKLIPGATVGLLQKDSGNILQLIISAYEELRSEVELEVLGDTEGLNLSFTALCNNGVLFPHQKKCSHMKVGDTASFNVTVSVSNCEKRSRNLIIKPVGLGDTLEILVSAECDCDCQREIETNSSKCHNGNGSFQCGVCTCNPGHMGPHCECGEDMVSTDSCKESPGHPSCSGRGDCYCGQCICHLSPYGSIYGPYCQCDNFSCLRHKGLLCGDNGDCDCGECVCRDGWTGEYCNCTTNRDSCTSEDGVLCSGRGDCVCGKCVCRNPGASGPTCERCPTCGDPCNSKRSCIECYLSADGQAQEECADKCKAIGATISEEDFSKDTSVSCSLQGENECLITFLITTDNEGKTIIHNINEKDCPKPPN

[3] = biological target: T3, recombinant human αvβ1 integrin extracellular domains (human, UniProt P06756 1-992; P05556 1-728, Secreted glycoprotein heterodimer. It is biotinylated on the omitted Avitag, and an interchain disulfide sits in the omitted coiled-coils.); assay: ForteBio Octet Red (BLI)
T3 construct: Soluble heterodimer co-expressed in Expi293 cells; also called hαvβ1; not shown: Alpha chain: acidic coiled-coil with cysteine and GG-Avitag; Beta chain: basic coiled-coil with cysteine and GG-Avitag

[4] = biological target: T4, recombinant human αvβ3 integrin extracellular domains (human, UniProt P06756 1-992; P05106 1-718, Secreted glycoprotein heterodimer. It is biotinylated on the omitted Avitag, and an interchain disulfide sits in the omitted coiled-coils.); assay: ForteBio Octet Red (BLI)
T4 construct: Soluble heterodimer co-expressed in Expi293 cells; also called hαvβ3; not shown: Alpha chain: acidic coiled-coil with cysteine and GG-Avitag; Beta chain: basic coiled-coil with cysteine and GG-Avitag

[5] = biological target: T5, recombinant human αvβ6 integrin extracellular domains (human, UniProt P06756 1-992; P18564 1-709, Biotinylated on the Avitag (tag not in the letters); interchain disulfide between the coiled-coils (not in the letters).); assay: AlphaLISA blocking of human LAP binding
T5 construct: Soluble heterodimer co-expressed in Expi293 cells; also called hαvβ6

[6] = biological target: T6, recombinant human αvβ8 integrin extracellular domains (human, UniProt P06756 1-992; P26012 1-684, Biotinylated on the Avitag (tag not in the letters); interchain disulfide between the coiled-coils (not in the letters).); assay: AlphaLISA blocking of human LAP binding
T6 construct: Soluble heterodimer co-expressed in Expi293 cells; also called hαvβ8

[7] = biological target: T7, recombinant human α5β1 integrin extracellular domains (human, UniProt P08648 1-995; P05556 1-728, Biotinylated on the Avitag (tag not in the letters); interchain disulfide between the coiled-coils (not in the letters).); assay: AlphaLISA blocking of human fibronectin binding
T7 construct: Soluble heterodimer co-expressed in Expi293 cells; also called hα5β1

[8] = biological target: T3, recombinant human αvβ1 integrin …; assay: AlphaLISA blocking of human fibronectin binding
[9] = biological target: T8, human αvβ1 integrin on CHOK1 stable cells (human, UniProt P06756 31-1048; P05556 21-798); assay: cell-based ELISA (CELISA), CHOK1 cells expressing the integrin
T8 construct: whole, on cells; Stably expressed on CHOK1 cells; also called hαvβ1; CHOK1-human αvβ1
Experimental: (§1) Integrin cell-based ELISA (CELISA) assay. Cell binding EC₅₀ data for antibodies were obtained for CHOK1 parental cells and CHOK1 cells expressing human or mouse αvβ1, αvβ6, and αvβ1 integrins by cell-based ELISA. Three days prior to the assay cells were seeded at 10,000 cells per well in 100 μL/well of media in Falcon 96-well Flat-Bottom Tissue Culture Plates (REF 353916), resulting in an even cell monolayer in each well on the day of the assay. On the day of the assay, media was removed from the cells and a fivefold titration of primary antibodies was added at concentrations ranging from 0 to 200 nM in TBSF+MnCl₂ buffer (25 mM Tris, 0.15 M NaCl, 0.1% BSA, 0.5 mM MnCl₂, pH 7.5). Cells incubated with primary antibody solution for 1 hour at room temperature. […] After 30 minutes of incubation at room temperature, secondary antibody was removed, and cells were washed twice with 150 μL/well of 1×DPBS+Tween 20. Then 50 μL/well of TMB substrate (1-Step Ultra TMB-ELISA, Thermo Scientific, #34028) was added, incubated with cells at room temperature, and 50 μL/well of TMB stop solution (Seracare, #KPL 50-85-05) was then added after five minutes. Absorbance was read on a TECAN plate reader at 450 nm, with a 620 nm reference wavelength.

[10] = biological target: T9, human αvβ6 integrin on CHOK1 stable cells (human, UniProt P06756 31-1048; P18564 22-788); assay: as above
T9 construct: whole, on cells; Stably expressed on CHOK1 cells; also called hαvβ6; CHOK1-human αvβ6
Experimental: as §1

[11] = biological target: T10, human α5β1 integrin on CHOK1 stable cells (human, UniProt P08648 42-1049; P05556 21-798); assay: as above
T10 construct: whole, on cells; Stably expressed on CHOK1 cells; also called hα5β1; CHOK1-human α5β1
Experimental: as §1

[12] = biological target: T11, mouse αvβ1 integrin on CHOK1 stable cells (mouse, UniProt P43406 31-1044; P09055 21-798); assay: as above
T11 construct: whole, on cells; Stably expressed on CHOK1 cells; the adhesion assay used the line with the hamster α5 gene knocked out (CHOK1-α5KO-mαvβ1); also called mαvβ1; CHOK1-mouse αvβ1
T11 sequence (P43406 31-1044, chain 1 of 2): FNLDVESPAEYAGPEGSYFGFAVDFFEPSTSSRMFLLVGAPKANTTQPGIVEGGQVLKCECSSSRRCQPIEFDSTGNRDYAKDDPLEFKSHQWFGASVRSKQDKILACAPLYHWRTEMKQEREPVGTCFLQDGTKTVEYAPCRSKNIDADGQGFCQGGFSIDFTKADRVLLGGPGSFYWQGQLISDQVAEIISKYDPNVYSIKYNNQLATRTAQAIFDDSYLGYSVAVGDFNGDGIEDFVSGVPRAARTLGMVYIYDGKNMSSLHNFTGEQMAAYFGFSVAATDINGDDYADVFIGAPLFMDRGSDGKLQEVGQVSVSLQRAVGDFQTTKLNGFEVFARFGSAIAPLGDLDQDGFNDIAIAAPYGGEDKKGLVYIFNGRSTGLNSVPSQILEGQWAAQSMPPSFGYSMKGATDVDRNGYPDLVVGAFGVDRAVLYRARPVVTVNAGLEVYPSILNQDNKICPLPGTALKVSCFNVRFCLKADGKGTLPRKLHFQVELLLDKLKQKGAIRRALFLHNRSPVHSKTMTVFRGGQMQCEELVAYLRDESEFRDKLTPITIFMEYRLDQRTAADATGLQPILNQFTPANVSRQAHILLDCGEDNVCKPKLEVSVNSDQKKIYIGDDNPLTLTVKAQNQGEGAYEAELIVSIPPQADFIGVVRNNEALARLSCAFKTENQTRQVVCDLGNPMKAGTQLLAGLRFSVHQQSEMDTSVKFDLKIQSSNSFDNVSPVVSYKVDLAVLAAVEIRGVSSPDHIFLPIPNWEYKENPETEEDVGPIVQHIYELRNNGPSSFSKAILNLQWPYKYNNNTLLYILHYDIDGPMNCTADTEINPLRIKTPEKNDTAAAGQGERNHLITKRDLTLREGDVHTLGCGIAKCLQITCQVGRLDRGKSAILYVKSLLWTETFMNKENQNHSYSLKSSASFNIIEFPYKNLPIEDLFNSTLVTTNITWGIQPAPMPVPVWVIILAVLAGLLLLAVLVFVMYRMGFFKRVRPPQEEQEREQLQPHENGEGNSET
T11 sequence (P09055 21-798, chain 2 of 2): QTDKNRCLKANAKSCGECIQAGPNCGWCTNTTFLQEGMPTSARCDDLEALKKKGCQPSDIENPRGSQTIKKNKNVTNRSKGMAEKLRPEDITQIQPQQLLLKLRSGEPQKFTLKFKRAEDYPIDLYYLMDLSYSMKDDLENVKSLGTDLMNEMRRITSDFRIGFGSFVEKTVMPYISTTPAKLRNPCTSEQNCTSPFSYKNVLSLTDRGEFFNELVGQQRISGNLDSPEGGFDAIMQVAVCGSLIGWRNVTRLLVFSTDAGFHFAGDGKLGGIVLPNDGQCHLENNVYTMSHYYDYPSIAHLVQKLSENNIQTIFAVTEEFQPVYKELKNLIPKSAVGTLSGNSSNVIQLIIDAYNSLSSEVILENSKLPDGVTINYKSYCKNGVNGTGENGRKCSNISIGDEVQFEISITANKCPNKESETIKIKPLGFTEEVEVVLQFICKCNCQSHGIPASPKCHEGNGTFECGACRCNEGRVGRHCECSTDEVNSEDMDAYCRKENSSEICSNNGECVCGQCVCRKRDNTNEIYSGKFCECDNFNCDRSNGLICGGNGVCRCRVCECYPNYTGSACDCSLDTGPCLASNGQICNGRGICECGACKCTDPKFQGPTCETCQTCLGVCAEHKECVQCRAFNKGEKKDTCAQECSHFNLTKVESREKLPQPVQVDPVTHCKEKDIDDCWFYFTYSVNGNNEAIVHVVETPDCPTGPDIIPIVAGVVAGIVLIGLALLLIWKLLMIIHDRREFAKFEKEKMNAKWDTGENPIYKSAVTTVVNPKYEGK
Experimental: as §1

[13] = biological target: T12, mouse αvβ6 integrin on CHOK1 stable cells (mouse, UniProt P43406 31-1044; Q9Z0T9 22-787); assay: as above
T12 construct: whole, on cells; Stably expressed on CHOK1 cells; also called mαvβ6; CHOK1-mouse αvβ6
T12 sequence (P43406 31-1044, chain 1 of 2): as the sequence (P43406 31-1044, chain 1 of 2) above
T12 sequence (Q9Z0T9 22-787, chain 2 of 2): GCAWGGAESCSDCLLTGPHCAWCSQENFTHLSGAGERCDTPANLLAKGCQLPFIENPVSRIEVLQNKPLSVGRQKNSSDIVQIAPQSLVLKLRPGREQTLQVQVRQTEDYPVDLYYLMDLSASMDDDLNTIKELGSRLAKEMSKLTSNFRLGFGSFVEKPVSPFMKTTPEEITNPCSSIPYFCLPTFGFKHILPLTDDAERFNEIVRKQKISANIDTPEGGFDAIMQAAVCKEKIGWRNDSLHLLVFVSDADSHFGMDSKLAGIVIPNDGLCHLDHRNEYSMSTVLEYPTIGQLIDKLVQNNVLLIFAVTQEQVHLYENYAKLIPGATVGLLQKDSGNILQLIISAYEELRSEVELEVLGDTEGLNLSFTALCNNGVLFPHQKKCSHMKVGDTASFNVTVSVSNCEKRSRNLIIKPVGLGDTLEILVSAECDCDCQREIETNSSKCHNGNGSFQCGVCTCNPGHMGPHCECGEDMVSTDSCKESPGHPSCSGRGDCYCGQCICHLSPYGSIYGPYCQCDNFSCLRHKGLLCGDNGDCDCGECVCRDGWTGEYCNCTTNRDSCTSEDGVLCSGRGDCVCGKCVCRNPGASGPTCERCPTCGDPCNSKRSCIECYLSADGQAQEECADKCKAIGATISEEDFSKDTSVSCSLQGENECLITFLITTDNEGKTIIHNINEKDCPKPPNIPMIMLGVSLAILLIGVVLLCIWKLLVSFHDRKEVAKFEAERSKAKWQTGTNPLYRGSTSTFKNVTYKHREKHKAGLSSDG
Experimental: as §1

[14] = biological target: T13, mouse α5β1 integrin on CHOK1 stable cells (mouse, UniProt P11688 45-1053; P09055 21-798); assay: as above
T13 construct: whole, on cells; Stably expressed on CHOK1 cells; also called mα5β1; CHOK1-mouse α5β1
Experimental: as §1

| Binder | Kd [1] [nM] | Kd [2] [nM] | Kd [3] [nM] | Kd [4] [nM] | IC50 [5] [nM] | IC50 [6] [nM] | IC50 [7] [nM] | IC50 [8] [nM] | EC50 [9] [nM] | EC50 [10] [nM] | EC50 [11] [nM] | EC50 [12] [nM] | EC50 [13] [nM] | EC50 [14] [nM] |
| --- | --- | --- | --- | --- | --- | --- | --- | --- | --- | --- | --- | --- | --- | --- |
| B1 | 48.4 | 2.9 | 14 | 6.47 | 30.9 | 47.8 | 47.3 | 2.26 | 0.32 | 0.483 | 1.22 | 0.743 | 0.64 | 1.76 |
| B2 | 25.9 | 2.59 | 7.4 | 6.14 | 16.4 | 48 | 34.1 | 2.41 | 0.335 | 0.438 | 0.597 | 0.609 | 0.508 | 0.131 |
| B3 | 35 | 3.03 | 6.75 | 5.29 | 25.4 | 19.7 | 43.1 | 3.15 | 0.23 | 0.323 | 0.495 | 0.593 | 0.335 | 0.03 |
| B4 | 37.7 | 2.45 | 12.7 | 5.07 | 7.49 | 12.2 | 31.1 | 1.27 | 0.702 | 0.417 |  | 2.84 | 2.84 |  |
| B5 | 4.21 | 4.11 | 2.7 | 6.58 | 96 | 200 | 9.46 | 2.57 | 0.198 | 0.861 | 0.166 | 1.09 | 0.285 | 0.213 |
